{"source": "IntAct's records for PubMed 31515488", "parents": {"B1": {"name": "mRNA-decapping enzyme 1A (Homo sapiens), Q9NPI6 (parent)", "chain": "MEALSRAGQEMSLAALKQHDPYITSIADLTGQVALYTFCPKANQWEKTDIEGTLFVYRRSASPYHGFTIVNRLNMHNLVEPVNKDLEFQLHEPFLLYRNASLSIYSIWFYDKNDCHRIAKLMADVVEEETRRSQQAARDKQSPSQANGCSDHRPIDILEMLSRAKDEYERNQMGDSNISSPGLQPSTQLSNLGSTETLEEMPSGSQDKSAPSGHKHLTVEELFGTSLPKEQPAVVGLDSEEMERLPGDASQKEPNSFLPFPFEQLGGAPQSETLGVPSAAHHSVQPEITTPVLITPASITQSNEKHAPTYTIPLSPVLSPTLPAEAPTAQVPPSLPRNSTMMQAVKTTPRQRSPLLNQPVPELSHASLIANQSPFRAPLNVTNTAGTSLPSVDLLQKLRLTPQHDQIQTQPLGKGAMVASFSPAAGQLATPESFIEPPSKTAAARVAASASLSNMVLAPLQSMQQNQDPEVFVQPKVLSSAIPVAGAPLVTATTTAVSSVLLAPSVFQQTVTRSSDLERKASSPSPLTIGTPESQRKPSIILSKSQLQDTLIHLIKNDSSFLSTLHEVYLQVLTKNKDNHNL"}, "B2": {"name": "Zinc finger protein Aiolos (Homo sapiens), Q9UKT9 (parent)", "chain": "MEDIQTNAELKSTQEQSVPAESAAVLNDYSLTKSHEMENVDSGEGPANEDEDIGDDSMKVKDEYSERDENVLKSEPMGNAEEPEIPYSYSREYNEYENIKLERHVVSFDSSRPTSGKMNCDVCGLSCISFNVLMVHKRSHTGERPFQCNQCGASFTQKGNLLRHIKLHTGEKPFKCHLCNYACQRRDALTGHLRTHSVEKPYKCEFCGRSYKQRSSLEEHKERCRTFLQSTDPGDTASAEARHIKAEMGSERALVLDRLASNVAKRKSSMPQKFIGEKRHCFDVNYNSSYMYEKESELIQTRMMDQAINNAISYLGAEALRPLVQTPPAPTSEMVPVISSMYPIALTRAEMSNGAPQELEKKSIHLPEKSVPSERGLSPNNSGHDSTDTDSNHEERQNHIYQQNHMVLSRARNGMPLLKEVPRSYELLKPPPICPRDSVKVINKEGEVMDVYRCDHCRVLFLDYVMFTIHMGCHGFRDPFECNMCGYRSHDRYEFSSHIARGEHRALLK", "partner": "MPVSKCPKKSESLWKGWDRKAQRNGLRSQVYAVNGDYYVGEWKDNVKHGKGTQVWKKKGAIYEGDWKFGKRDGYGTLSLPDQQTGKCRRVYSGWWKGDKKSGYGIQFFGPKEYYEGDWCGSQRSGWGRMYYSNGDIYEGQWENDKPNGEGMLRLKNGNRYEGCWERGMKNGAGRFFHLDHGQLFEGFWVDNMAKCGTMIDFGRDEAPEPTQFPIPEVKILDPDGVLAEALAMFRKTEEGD"}, "B3": {"name": "Protein mab-21-like 3 (Homo sapiens), Q8N8X9 (parent)", "chain": "MKYLTVGDLEDCLLNKVDLRRQQISQAVEEVQKVVHHLTTNISNQDIRFQAVPYSDTYNENIKVLAPSQFLVTVPIKGLAGYREAREQHWRYYTLQGTRLPCPLRDPEGLQQWLEVEQFMKSLWQWHETDVNIDGDIVPAKVLLVFRKLVENAVRTCHLSGKVSLLGNRSAVWVAVETSAYQVELELVPAVEIPTTWSKKARWPRCLQRWPSQERVECIKSFGFNLLACSNYHWQLSFLRAEQVLLEQLDEDGGCRRKCFQVMRHLKEDIWCPGNRPVITSHHLQTVLFWTCEKYPHFKDWQVFSKAFLRLVRKLHKCVSQHFLKHYFVRNSNLFQCTNPTELDTVAQKLATFLKNPQIGPP", "partner": "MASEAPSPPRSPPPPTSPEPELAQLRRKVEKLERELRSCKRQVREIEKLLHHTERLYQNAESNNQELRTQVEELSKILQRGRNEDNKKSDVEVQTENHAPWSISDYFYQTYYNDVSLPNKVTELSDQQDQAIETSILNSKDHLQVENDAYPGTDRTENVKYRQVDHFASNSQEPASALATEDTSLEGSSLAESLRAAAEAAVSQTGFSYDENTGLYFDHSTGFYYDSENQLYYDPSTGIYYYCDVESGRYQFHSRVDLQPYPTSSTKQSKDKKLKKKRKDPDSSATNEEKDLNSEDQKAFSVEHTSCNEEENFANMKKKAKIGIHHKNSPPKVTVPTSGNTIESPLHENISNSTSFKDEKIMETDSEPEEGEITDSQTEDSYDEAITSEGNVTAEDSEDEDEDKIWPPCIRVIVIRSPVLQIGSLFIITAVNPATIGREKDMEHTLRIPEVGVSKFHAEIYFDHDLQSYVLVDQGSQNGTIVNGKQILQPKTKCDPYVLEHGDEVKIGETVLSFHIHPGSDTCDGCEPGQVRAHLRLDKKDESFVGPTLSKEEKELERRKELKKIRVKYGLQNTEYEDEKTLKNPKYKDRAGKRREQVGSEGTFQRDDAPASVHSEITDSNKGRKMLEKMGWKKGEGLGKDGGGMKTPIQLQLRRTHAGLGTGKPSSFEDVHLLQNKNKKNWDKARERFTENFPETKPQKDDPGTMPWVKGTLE"}, "B4": {"name": "Break repair meiotic recombinase recruitment factor 1 (Homo sapiens), Q0VDD7 (parent)", "chain": "MTKRKKLRTSGEGLCPPKPLKNPRLGDFYGDPQSSMLGCLHHPEEPEGKLGPVPSTQQHGEEPGKAVSSSPDEETGSPCRLLRQPEKEPAPLPPSQNSFGRFVPQFAKSRKTVTRKEEMKDEDRGSGAFSLETIAESSAQSPGCQLLVETLGVPLQEATELGDPTQADSARPEQSSQSPVQAVPGSGDSQPDDPPDRGTGLSASQRASQDHLSEQGADDSKPETDRVPGDGGQKEHLPSIDSEGEKPDRGAPQEGGAQRTAGAGLPGGPQEEGDGVPCTPASAPTSGPAPGLGPASWCLEPGSVAQGSPDPQQTPSRMGREGEGTHSSLGCSSLGMVVIADLSTDPTELEERALEVAGPDGQASAISPASPRRKAADGGHRRALPGCTSLTGETTGESGEAGQDGKPPGDVLVGPTASLALAPGSGESMMGAGDSGHASPDTGPCVNQKQEPGPAQEEAELGGQNLERDLEGFRVSPQASVVLEHREIADDPLQEPGAQQGIPDTTSELAGQRDHLPHSADQGTWADSLAVELDFLLDSQIQDALDASDFEAPPEQLFPSGNKPGPCWPGPSSHANGDPVAVAKAQPRTFVGIQASEASRMEDATNVVRGLIVELSNLNRLIMGTHRDLEAFKRLNYRKTKLGGKAPLPYPSKGPGNIPRGDPPWREL", "partner": "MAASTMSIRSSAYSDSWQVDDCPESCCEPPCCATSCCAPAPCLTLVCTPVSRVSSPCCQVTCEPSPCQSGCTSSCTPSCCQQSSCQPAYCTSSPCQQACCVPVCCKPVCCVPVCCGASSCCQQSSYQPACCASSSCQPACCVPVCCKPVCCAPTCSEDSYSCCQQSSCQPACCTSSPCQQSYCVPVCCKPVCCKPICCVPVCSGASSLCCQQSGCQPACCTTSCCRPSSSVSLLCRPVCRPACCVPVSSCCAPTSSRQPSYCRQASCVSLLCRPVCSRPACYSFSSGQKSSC"}, "B5": {"name": "Microtubule-associated tumor suppressor candidate 2 (Homo sapiens), Q5JR59-3 (parent)", "chain": "MGHCCCKPYNCLQCLDKTNESALVKEKELSIELANIRDEVAFHTAKCEKLQKEKEELERRFEDEVKRLGWQQQAELQELEERLQLQFEAEMARLQEEHGDQLLSIRCQHQEQVEDLTASHDAALLEMENNHTVAITILQDDHDHKVQELMSTHELEKKELEENFEKLRLSLQDQVDTLTFQSQSLRDRARRFEEALRKNTEEQLEIALAPYQHLEEDMKSLKQVLEMKNQQIHEQEKKILELEKLAEKNIILEEKIQVLQQQNEDLKARIDQNTVVTRQLSEENANLQEYVEKETQEKKRLSRTNEELLWKLQTGDPTSPIKLSPTSPVYRGSSSGPSSPARVSTTPR", "partner": "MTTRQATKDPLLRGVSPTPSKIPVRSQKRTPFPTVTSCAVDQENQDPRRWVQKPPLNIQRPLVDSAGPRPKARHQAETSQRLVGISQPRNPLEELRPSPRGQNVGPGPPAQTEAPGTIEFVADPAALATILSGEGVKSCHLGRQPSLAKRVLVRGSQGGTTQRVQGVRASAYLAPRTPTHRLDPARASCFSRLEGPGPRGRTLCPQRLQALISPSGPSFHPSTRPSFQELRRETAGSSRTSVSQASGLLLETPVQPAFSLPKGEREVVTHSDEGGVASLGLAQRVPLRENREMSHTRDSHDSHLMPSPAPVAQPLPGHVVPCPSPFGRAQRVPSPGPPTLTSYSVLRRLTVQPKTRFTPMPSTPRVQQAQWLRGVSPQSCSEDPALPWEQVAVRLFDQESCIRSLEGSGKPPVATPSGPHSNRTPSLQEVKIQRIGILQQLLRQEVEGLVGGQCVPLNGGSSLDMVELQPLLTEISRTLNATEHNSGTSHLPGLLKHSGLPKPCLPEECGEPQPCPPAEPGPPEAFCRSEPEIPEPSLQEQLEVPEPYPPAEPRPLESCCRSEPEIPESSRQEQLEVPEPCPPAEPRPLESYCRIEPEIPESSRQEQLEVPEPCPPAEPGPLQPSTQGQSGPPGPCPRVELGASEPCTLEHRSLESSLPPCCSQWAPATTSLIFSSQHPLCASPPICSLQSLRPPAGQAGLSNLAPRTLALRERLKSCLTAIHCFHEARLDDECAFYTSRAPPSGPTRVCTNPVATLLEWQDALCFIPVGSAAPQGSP"}, "B6": {"name": "Endothelial transcription factor GATA-2 (Homo sapiens), P23769 (parent)", "chain": "MEVAPEQPRWMAHPAVLNAQHPDSHHPGLAHNYMEPAQLLPPDEVDVFFNHLDSQGNPYYANPAHARARVSYSPAHARLTGGQMCRPHLLHSPGLPWLDGGKAALSAAAAHHHNPWTVSPFSKTPLHPSAAGGPGGPLSVYPGAGGGSGGGSGSSVASLTPTAAHSGSHLFGFPPTPPKEVSPDPSTTGAASPASSSAGGSAARGEDKDGVKYQVSLTESMKMESGSPLRPGLATMGTQPATHHPIPTYPSYVPAAAHDYSSGLFHPGGFLGGPASSFTPKQRSKARSCSEGRECVNCGATATPLWRRDGTGHYLCNACGLYHKMNGQNRPLIKPKRRLSAARRAGTCCANCQTTTTTLWRRNANGDPVCNACGLYYKLHNVNRPLTMKKEGIQTRNRKMSNKSKKSKKGAECFEELSKCMQEKSSPFSAAALAGHMAPVGHLPPFSHSGHILPTPTPIHPSSSLSFGHPHPSSMVTAMG", "partner": "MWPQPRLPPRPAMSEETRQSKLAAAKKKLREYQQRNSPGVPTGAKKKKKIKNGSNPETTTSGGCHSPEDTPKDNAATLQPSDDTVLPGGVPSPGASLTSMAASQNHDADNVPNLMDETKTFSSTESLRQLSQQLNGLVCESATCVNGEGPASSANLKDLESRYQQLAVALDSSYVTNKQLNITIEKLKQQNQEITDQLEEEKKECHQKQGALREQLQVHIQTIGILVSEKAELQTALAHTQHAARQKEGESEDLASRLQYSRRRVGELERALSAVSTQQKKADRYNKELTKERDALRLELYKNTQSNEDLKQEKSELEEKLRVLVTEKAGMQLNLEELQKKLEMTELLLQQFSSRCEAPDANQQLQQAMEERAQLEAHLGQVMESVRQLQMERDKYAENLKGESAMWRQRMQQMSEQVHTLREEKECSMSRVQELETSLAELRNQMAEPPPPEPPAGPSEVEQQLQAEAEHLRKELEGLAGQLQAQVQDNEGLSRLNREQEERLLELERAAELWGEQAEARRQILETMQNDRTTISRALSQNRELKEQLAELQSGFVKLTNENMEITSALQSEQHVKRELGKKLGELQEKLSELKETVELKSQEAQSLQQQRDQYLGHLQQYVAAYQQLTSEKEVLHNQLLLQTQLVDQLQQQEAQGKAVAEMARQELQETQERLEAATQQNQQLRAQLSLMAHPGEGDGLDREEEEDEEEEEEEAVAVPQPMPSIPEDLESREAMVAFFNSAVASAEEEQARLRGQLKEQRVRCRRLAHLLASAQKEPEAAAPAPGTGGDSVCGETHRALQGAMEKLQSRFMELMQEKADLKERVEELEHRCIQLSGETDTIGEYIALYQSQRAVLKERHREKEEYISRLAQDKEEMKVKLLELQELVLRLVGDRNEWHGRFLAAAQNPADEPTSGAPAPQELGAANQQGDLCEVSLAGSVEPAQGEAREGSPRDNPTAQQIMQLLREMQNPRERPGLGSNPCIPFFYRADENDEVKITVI"}}, "data": [{"variants_of": "B1", "details": "with pnrc2_human PNRC2, Q9NPJ4", "values": [{"variant": "P332T", "effect of a mutation on the interaction": "with no effect"}]}, {"variants_of": "B2", "details": "with morn3_human MORN3, Q6PF18", "values": [{"variant": "A24V", "effect of a mutation on the interaction": "with no effect"}, {"variant": "N119D", "effect of a mutation on the interaction": "with no effect"}]}, {"variants_of": "B3", "details": "with aggf1_human AGGF1, Q8N302", "values": [{"variant": "T338A", "effect of a mutation on the interaction": "with no effect"}]}, {"variants_of": "B4", "details": "with kr109_human KRTAP10-9, P60411", "values": [{"variant": "N576S", "effect of a mutation on the interaction": "with no effect"}]}, {"variants_of": "B5", "details": "with troap_human TROAP", "values": [{"variant": "A89V", "effect of a mutation on the interaction": "with no effect"}]}, {"variants_of": "B6", "details": "with goga2_human GOLGA2, Q08379", "values": [{"variant": "A164T", "effect of a mutation on the interaction": "with no effect"}]}]}
